Results from patent publication US6258776A, “Calcium-regulated kinase” (priority 1997, dated 2001).

Tests used:
[1] = system: S100 proteins, including S100B; conditions: cited from earlier work
[2] = system: M960618 melanoma cells (Ndr activity); experiment: W-7 effect on Ndr activity in S100B-positive melanoma cells; type: cell-based; conditions: Homo sapiens, 1.25 h; read-out: reduction of Ndr activity
HA-Ndr WT = conditions: 1 μM, 1 h
Protocol: COS-1 cells expressing HA-Ndr WT (as in Example 5) are treated either with solvent alone (Control) or with a panel of cell permeable protein phosphatase inhibitors. The cells are then extracted, HA-Ndr is immunoprecipitated with the anti-HA mAb 12CA5, and the kinase activity of Ndr measured as before, using the peptide substrate.

PP2A = conditions: concentrations used in cells (okadaic acid 1 μM, cyclosporin A 1 μM); cited from earlier work
[3] = system: protein phosphatase 1 (PP1); conditions: concentrations used in cells; cited from earlier work
HA-Ndr = experiment: in vitro incubation of immunoprecipitated HA-Ndr with PP2A; type: biochemical; conditions: PP2A plus 100 nM okadaic acid
Protocol: In order to provide evidence that PP2A directly interacts with and thereby affects Ndr activity, HA-Ndr is immunoprecipitated from cells treated with 20 μM A23187 or with solvent alone for 5 min. In parallel, HA-Ndr is immunoprecipitated from cells treated with 1 μM okadaic acid or solvent alone ("Control") for 1 h. Each immunoprecipitate is then incubated in vitro for 1 h with either buffer alone, with purified PP2A (dimeric form consisting of catalytic subunit and 65 kDa regulatory subunit) or with PP2A plus 100 nM okadaic acid. Thereafter, the immunoprecipitates are washed and assayed for Ndr peptide kinase activity as described in Example 5.

S100B-Ndr = experiment: inhibition of binding of S100B to Ndr
wild-type Ndr = experiment: immune complex kinase assay with S100B and Ca^2+, wild-type Ndr; type: biochemical, human; conditions: Ca^2+ -S100B
Protocol: (§1) In immune complex kinase assays and autophosphorylation assays (see below), COS-1 cells are transfected as described above or with pECE-Ndr-K118A. After 72 h, cells are washed with ice-cold PBS and lysed in lysis buffer (20 mM Tris-HCl pH 8.0, 150 mM NaCl, 1% (v/v) NP-40, 10% (v/v) glycerol, 5 mM EDTA, 0.5 mM EGTA, 0.5 mM phenylmethyl-sulfonyl fluoride, 4 μM leupeptin, 1 mM benzamidine, 1 μM microcystin and 1 mM Na3 VO4). Lysates are centrifuged at 14,000 g for 20 min. Duplicate aliquots of supernatant (250 μg, 2.5 mg/ml) are incubated for 2 h at 0° C. with 10 μg/ml Ab^1-465. Immune complexes are precipitated by addition of 2 μl protein A-Sepharose (Pharmacia) and mixing for 1 h. The beads are then washed twice with lysis buffer, once with lysis buffer containing 1 M NaCl, with lysis buffer again, and finally twice with 20 mM Tris-HCl pH 7.5. Beads are resuspended in 30 μl buffer containing 20 mM Tris-HCl pH 7.5, 10 mM MgCl2, 100 μM CaCl2, 1 mM dithiothreitol, 100 μM [γ-^32 P] ATP (0.5 μCi/μls), 1 mM Ndr substrate peptide ([…], SEQ. ID. No. 1), 1 μM cAMP-dependent protein kinase inhibitor peptide (PKI; purchased from Bachem, Bubendorf, Swit zerland), 4 μM leupeptin, 1 mM benzamidine, 1 μM microcystin and, in some assays, 20 μM bovine S100B. After 60 min at 30° C., phosphate incorporation into the peptide is quantitated as described above. […]

Ndr Δ65-81 = experiment: immune complex kinase assay with S100B and Ca^2+, Ndr deletion of amino acids 65-81; type: biochemical, human
Protocol: as §1

Ndr Δ1-84 = experiment: immune complex kinase assay with S100B and Ca^2+, Ndr lacking amino terminal domain; type: biochemical, human
Protocol: as §1

GST-Ndr [4] = biological target: T1, GST-Ndr (Homo sapiens, UniProt Q15208); experiment: preincubation of immobilised GST-Ndr followed by peptide kinase assay; type: biochemical
T1 construct: made in house
T1 sequence (Q15208 whole entry): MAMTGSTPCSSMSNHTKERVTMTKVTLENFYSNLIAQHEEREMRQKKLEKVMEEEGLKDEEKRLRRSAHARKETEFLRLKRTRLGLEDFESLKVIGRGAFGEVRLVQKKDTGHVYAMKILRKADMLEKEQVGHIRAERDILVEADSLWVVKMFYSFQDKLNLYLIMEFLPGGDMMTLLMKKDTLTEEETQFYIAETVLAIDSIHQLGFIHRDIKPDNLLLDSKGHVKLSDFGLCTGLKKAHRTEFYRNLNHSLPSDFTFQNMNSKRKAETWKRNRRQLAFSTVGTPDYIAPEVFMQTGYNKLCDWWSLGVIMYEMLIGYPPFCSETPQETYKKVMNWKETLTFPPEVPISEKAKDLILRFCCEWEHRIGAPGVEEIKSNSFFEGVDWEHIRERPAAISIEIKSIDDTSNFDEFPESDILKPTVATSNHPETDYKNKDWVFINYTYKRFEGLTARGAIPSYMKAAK
Protocol: Activation of Ndr by S100B appears to be independent of kinase autophosphorylation. However, increased autophosphorylation is observed: GST-Ndr is immobilised on agarose and preincubated with or without Ca^2+ -S100B, in the presence or absence of Mg-ATP (to either allow or not allow autophosphorylation). The agarose beads are then washed and assayed for Ndr activity as set out herein with radiolabelled ATP and peptide substrate, and in the presence or absence of Ca^2+ -S100B. Preincubation of GST-Ndr with Mg-ATP alone increases its peptide kinase activity, showing that autophosphorylation activates Ndr. […] Preincubation with Ca^2+ S100B alone has no effect, because activation by Ca^2+ -S100B in the preincubation step is mediated by Ndr autophosphorylation.
Ca^2+ -S100B increases the rate Ndr autophosphorylation by 2.5-fold, and it increases autophosphorylation-dependent Ndr activation by 2-fold. However, the total activation of Ndr by Ca^2+ -S100B is larger than this (5- to 10-fold). Thus, the increased autophosphorylation of Ndr caused by Ca^2+ -S100B is not by itself sufficient to account for Ndr activation. In addition, Ca^2+ -S100B probably stimulates Ndr kinase activity directly, in an autophosphorylation-independent manner.

GST-Ndr [5] = biological target: T1, GST-Ndr; experiment: GST-Ndr peptide kinase assay with calcium-binding proteins; type: biochemical
Protocol: 1 μg GST-Ndr WT or GST-Ndr K118A, either in solution or immobilised on glutathione-agarose beads, is assayed in a 20 μl reaction containing 20 mM Tris-HCl pH 7.5, 5 mM MgCl2, 1 mM dithiothreitol, 100 μM [γ-^32 P] […] Reactions are supplemented with either 2 mM EGTA or various concentrations of CaCl2. Bovine CaM, bovine S100B (both from Sigma) or recombinant calcium-binding proteins. After incubation at 30° C. for 60 min, aliquots of the reaction are spotted on to P81 phosphocellulose paper and counted as above.
In brief, coding regions are cloned into the PGEMEX expression vector (Promega) and resultant plasmids used to transform E. coli BL-21 LysS cells. After induction, S100 proteins are purified by ammonium sulphate precipitation followed by Ca^2+ -dependent phenyl-Sepharose chromatography.
The proteins are added together with Ca^2+ into GST-N dr peptide kinase assays. The proteins tested comprised S100A1 (S100α), S100A2 (S100L), S100A4 (CAPL), S100A6 (calcyclin) and S100B (S100β); α-parvalbumin is included as a negative control.
In order to estimate the binding affinity of S100B for Ndr, kinase assays are performed in which GST-Ndr is mixed with various concentrations of purified bovine S100B homodimer, in the presence or absence of calcium.
To determine whether activation of Ndr by S100B occurs at physiological Ca^2+ concentrations, Ndr activity is assayed with or without added S100B over a range of Ca^2+ concentrations.

Ndr = Ndr activity in cell lines with and without S100B expression; type: cell-based, human; conditions: p<0.05, two-tailed Students' t test
Protocol: COS cells are transfected with pECE-Ndr or with empty vector (pECE). 20 μg of these extracts are immunoprecipitated with anti-Ndr (which has been covalently cross-linked to protein A-Sepharose using dimethyl pimelimidate). 400 μg of extract from HeLa cells is immunoprecipitated in parallel. The immunoprecipitates are separated by SDS-PAGE and then immunoblotted using biotinylated anti-Ndr and streptavidin-peroxidase. […] A band of ~53 kDa is also present in HeLa and COS-1 cells and probably represents a proteolytic fragment of full-length Ndr.
Using the method described above, the 12 cell lines are analysed for Ndr abundance. The amount of Ndr (in ng per 400 μg cell extract) is quantitated by densitometry of the blots, and comparison with blots containing known amounts of GST-Ndr. The same cell lines are also assayed for the presence or absence of S100B, by immunoprecipitation of cell extracts with anti-S100B, followed by immunoblotting of the precipitates.

GST-Ndr [6] = biological target: T1, GST-Ndr; experiment: Ndr autophosphorylation assay; type: biochemical
Protocol: In immune complex kinase assays and autophosphorylation assays (see below), COS-1 cells are transfected as described above or with pECE-Ndr-K118A. After 72 h, cells are washed with ice-cold PBS and lysed in lysis buffer (20 mM Tris-HCl pH 8.0, 150 mM NaCl, 1% (v/v) NP-40, 10% (v/v) glycerol, 5 mM EDTA, 0.5 mM EGTA, 0.5 mM phenylmethyl-sulfonyl fluoride, 4 μM leupeptin, 1 mM benzamidine, 1 μM microcystin and 1 mM Na3 VO4). Lysates are centrifuged at 14,000 g for 20 min. Duplicate aliquots of supernatant (250 μg, 2.5 mg/ml) are incubated for 2 h at 0° C. with 10 μg/ml Ab^1-465. Immune complexes are precipitated by addition of 2 μl protein A-Sepharose (Pharmacia) and mixing for 1 h. The beads are then washed twice with lysis buffer, once with lysis buffer containing 1 M NaCl, with lysis buffer again, and finally twice with 20 mM Tris-HCl pH 7.5. […] After 60 min at 30° C., phosphate incorporation into the peptide is quantitated as described above.
The proteins are added together with Ca^2+ into GST-N dr peptide kinase assays. […] The increased kinase activity observed in the presence of S100A1 and S100B is not due to contaminating kinase activity, because no activity is recorded when kinase-negative GST-Ndr, containing a point mutation (Lys^118→Ala) in the ATP binding pocket, is used in place of wild-type GST-Ndr. […]

For NCCCCCCNS(=O)(=O)c1cccc2c(Cl)cccc12 [W-7], the “binding to S100 proteins” value [1] is listed as “binds to several S100 proteins, including S100B, in a Ca^2+ -dependent manner” and the inhibition at 50 µM [2] is listed as about 80%.

In the case of C=C1[C@@H](O)[C@@H]2O[C@]3(CC[C@H](/C=C/[C@@H](C)[C@@H]4CC(C)=C[C@@]5(O[C@H](C[C@@](C)(O)C(=O)O)CC[C@H]5O)O4)O3)CC[C@H]2O[C@@H]1[C@@H](O)C[C@H](C)[C@H]1O[C@@]2(CCCCO2)CC[C@H]1C [okadaic acid], the “activation of Ndr” value (HA-Ndr WT) is listed as ~ 8 fold, the “inhibition of intracellular PP2A” value (PP2A) is listed as “completely inhibits intracellular PP2A” and the “effect on PP1” value [3] is listed as “does not affect protein phosphatase 1 (PP1)”. For the same molecule, the “prevention of inactivation of HA-Ndr by PP2A” value (HA-Ndr) was “inactivation is prevented”.

For “KRLRRSAHARKETEFLRLKRTRLGL [SEQ ID No.32]”, the “inhibition of binding of S100B to Ndr” value (S100B-Ndr) was “effectively inhibit binding of S100B to Ndr”.

B1: S100B: EF hand calcium-binding protein of the S100 family; bovine S100B homodimer or recombinant (protein, UniProt P02638 2-92, looked up)
Protein S100-B: SELEKAVVALIDVFHQYSGREGDKHKLKKSELKELINNELSHFLEEIKEQEVVDKVMETLDSDGDGECDFQEFMAFVAMITTACHEFFEHE
For B1, the “degree of activation of immunoprecipitated Ndr” value (wild-type Ndr) was ~ 2 fold, the “sensitivity to S100B” value (Ndr Δ65-81) was “ablated its sensitivity to S100B” and the “response to S100B” value (Ndr Δ1-84) was “failed to respond to S100B”. The “increase in autophosphorylation-dependent Ndr activation” value (GST-Ndr [4]; Ca^2+ -S100B) was 2 fold, the “peptide kinase activity after preincubation” value (GST-Ndr [4]; preincubation with Ca^2+ -S100B alone) was “no effect” and the “peptide kinase activity after preincubation” value (GST-Ndr [4]; preincubation with Mg-ATP and Ca^2+ -S100B) was “even greater autoactivation of the peptide kinase activity”. The “maximal activation of Ndr” value (GST-Ndr [5]; 2 mM EGTA, without calcium) was “much lower”, the “activation of Ndr in the absence of calcium” value (GST-Ndr [5]; absence of calcium) was “partial activation of Ndr in the absence of calcium” and the “increase in Ndr kinase activity” value (GST-Ndr [5]; added together with Ca^2+, 60 min, 30° C.) was 5-6 fold. For the same molecule, the “maximal activation of Ndr” value (GST-Ndr [5]; presence of calcium, bovine S100B homodimer) was ~ 7 fold, the “Ndr average specific activity, S100B-positive versus S100B-negative cell lines” value (Ndr) was ~ 2 fold and the Ndr autophosphorylation (GST-Ndr [6]) was “stimulated Ndr autophosphorylation”. The “increase in rate of Ndr autophosphorylation” value (GST-Ndr [6]; Ca^2+ -S100B) was 2.5 fold.
